Assay results: article PMC3146532, “Multiple ATR-Chk1 Pathway Proteins Preferentially Associate with Checkpoint-Inducing DNA Substrates”

Experiments:
FAAP24-His = target: T1, FAAP24-His (UniProt Q9BTP7 1-215); assay: pull-down; 10 mM Tris pH 7.4, 50 mM NaCl (oligo DNA) or 100 mM NaCl (plasmid; 200/300 mM for TopBP1 salt series), 10 ug/ml BSA, 10% glycerol, 0.01% NP-40, room temperature, 30 min; bead pull-down with immunoblot; details: protein: recombinant, tags: His (pET21b)
T1 sequence: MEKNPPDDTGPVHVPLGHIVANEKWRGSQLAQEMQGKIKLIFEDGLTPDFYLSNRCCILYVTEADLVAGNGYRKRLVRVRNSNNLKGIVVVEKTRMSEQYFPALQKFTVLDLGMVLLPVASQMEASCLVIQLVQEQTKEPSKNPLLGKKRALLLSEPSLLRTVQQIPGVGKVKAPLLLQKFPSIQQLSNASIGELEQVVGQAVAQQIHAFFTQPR

His-Chk1 = target: T2, His-Chk1 (UniProt O14757 1-476); assay: as above; details: protein: recombinant, tags: His
T2 sequence: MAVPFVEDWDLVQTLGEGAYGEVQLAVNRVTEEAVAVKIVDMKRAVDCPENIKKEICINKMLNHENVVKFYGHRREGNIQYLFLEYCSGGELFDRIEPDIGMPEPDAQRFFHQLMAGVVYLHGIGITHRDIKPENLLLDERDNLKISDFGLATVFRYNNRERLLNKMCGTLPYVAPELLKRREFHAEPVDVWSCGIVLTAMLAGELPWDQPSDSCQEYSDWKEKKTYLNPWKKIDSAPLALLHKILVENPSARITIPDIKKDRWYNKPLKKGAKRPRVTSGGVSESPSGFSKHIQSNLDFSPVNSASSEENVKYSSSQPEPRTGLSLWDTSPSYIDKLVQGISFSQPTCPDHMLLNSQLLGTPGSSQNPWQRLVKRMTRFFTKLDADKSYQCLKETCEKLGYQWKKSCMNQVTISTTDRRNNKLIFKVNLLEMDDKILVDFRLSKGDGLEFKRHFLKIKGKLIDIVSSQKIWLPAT

RPA (heterotrimer) = RPA (heterotrimer) (UniProt P27694;P15927;P35244 1-616;1-270;1-121); assay: pull-down; up to 10-fold more than dsDNA; 10 mM Tris pH 7.4, 50 mM NaCl (oligo DNA) or 100 mM NaCl (plasmid; 200/300 mM for TopBP1 salt series), 10 ug/ml BSA, 10% glycerol, 0.01% NP-40, room temperature, 30 min; bead pull-down with immunoblot; details: protein: recombinant, copies: 1;1;1
FLAG-Timeless = FLAG-Timeless (UniProt Q9UNS1 1-1208); assay: pull-down; 10 mM Tris pH 7.4, 50 mM NaCl (oligo DNA) or 100 mM NaCl (plasmid; 200/300 mM for TopBP1 salt series), 10 ug/ml BSA, 10% glycerol, 0.01% NP-40, room temperature, 30 min; bead pull-down with immunoblot; details: protein: recombinant; tags: FLAG; label: 5'-biotin on Oligo1; fork 1:2; 31 bp duplex, two 19 nt unpaired arms (3' of Oligo1, 5' of Oligo2)
MBP-XPA = MBP-XPA (UniProt P23025 1-273); assay: as above; details: protein: recombinant; tags: MBP; label: 5'-biotin on Oligo1; fork 1:2; 31 bp duplex, two 19 nt unpaired arms (3' of Oligo1, 5' of Oligo2)
[1] = target: T3, 9-1-1 complex (FLAG-Rad9-Hus1-Rad1) (UniProt Q99638;O60921;O60671 1-391;1-280;1-282); assay: as above; details: protein: recombinant; tags: FLAG on Rad9; copies: 1;1;1; label: 5'-biotin on Oligo1; fork 1:2; 31 bp duplex, two 19 nt unpaired arms (3' of Oligo1, 5' of Oligo2)
T3 sequence 1: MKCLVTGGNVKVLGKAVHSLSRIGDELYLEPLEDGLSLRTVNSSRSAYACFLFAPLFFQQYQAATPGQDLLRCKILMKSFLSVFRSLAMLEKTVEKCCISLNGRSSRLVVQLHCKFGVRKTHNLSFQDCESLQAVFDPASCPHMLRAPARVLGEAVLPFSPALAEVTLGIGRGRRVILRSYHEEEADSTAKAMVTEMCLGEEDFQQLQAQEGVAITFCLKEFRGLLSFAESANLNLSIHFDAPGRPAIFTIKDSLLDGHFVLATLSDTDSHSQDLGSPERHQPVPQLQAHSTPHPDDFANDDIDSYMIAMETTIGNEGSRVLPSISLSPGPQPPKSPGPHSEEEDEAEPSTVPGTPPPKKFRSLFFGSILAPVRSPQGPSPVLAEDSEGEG
T3 sequence 2: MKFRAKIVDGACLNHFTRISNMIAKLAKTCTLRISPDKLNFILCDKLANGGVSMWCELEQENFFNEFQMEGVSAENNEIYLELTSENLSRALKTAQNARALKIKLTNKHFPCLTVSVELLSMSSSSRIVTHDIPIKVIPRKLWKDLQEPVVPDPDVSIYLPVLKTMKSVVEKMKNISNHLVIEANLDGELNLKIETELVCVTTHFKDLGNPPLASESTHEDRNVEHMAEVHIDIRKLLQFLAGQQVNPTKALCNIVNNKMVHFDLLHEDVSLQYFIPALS
T3 sequence 3: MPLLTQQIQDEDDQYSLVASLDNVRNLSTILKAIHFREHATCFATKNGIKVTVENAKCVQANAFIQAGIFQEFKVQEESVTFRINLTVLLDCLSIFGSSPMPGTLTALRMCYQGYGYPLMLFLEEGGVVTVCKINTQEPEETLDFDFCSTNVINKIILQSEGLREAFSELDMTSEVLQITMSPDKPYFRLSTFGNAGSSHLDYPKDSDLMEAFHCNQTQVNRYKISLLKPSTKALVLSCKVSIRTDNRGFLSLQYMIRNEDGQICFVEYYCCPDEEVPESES

FLAG-Timeless;Tipin-His = FLAG-Timeless;Tipin-His (human?;human?, UniProt Q9UNS1;Q9BVW5 1-1208;1-301, |); assay: as above; details: protein: recombinant;recombinant; tags: FLAG;His; copies: 1;1; label: 5'-biotin on Oligo1; fork 1:2; 31 bp duplex, two 19 nt unpaired arms (3' of Oligo1, 5' of Oligo2)
FLAG-Claspin = FLAG-Claspin (UniProt Q9HAW4 1-1339); assay: as above; details: protein: recombinant; tags: FLAG; label: 5'-biotin on Oligo1; fork 1:2; 31 bp duplex, two 19 nt unpaired arms (3' of Oligo1, 5' of Oligo2)
Tipin-His = target: T4, Tipin-His (UniProt Q9BVW5 1-301); assay: pull-down; >10-fold over ssDNA or dsDNA at highest protein; 10 mM Tris pH 7.4, 50 mM NaCl (oligo DNA) or 100 mM NaCl (plasmid; 200/300 mM for TopBP1 salt series), 10 ug/ml BSA, 10% glycerol, 0.01% NP-40, room temperature, 30 min; bead pull-down with immunoblot; details: protein: recombinant; tags: His; label: 5'-biotin on Oligo1; fork 1:2; 31 bp duplex, two 19 nt unpaired arms (3' of Oligo1, 5' of Oligo2)
T4 sequence: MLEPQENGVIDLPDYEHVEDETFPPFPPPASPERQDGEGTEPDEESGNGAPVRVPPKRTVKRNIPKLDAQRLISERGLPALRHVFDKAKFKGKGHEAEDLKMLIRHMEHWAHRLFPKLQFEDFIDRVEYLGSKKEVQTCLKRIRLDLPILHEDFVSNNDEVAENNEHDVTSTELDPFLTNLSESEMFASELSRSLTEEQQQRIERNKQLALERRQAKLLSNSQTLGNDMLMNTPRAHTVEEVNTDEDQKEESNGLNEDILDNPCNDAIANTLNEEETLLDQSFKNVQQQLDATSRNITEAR

FLAG-ATRIP = target: T5, FLAG-ATRIP (UniProt Q8WXE1 1-791); assay: pull-down; without RPA; 10 mM Tris pH 7.4, 50 mM NaCl (oligo DNA) or 100 mM NaCl (plasmid; 200/300 mM for TopBP1 salt series), 10 ug/ml BSA, 10% glycerol, 0.01% NP-40, room temperature, 30 min; bead pull-down with immunoblot; details: protein: recombinant; tags: FLAG; label: 5'-biotin on Oligo1; fork 1:2; 31 bp duplex, two 19 nt unpaired arms (3' of Oligo1, 5' of Oligo2)
T5 sequence: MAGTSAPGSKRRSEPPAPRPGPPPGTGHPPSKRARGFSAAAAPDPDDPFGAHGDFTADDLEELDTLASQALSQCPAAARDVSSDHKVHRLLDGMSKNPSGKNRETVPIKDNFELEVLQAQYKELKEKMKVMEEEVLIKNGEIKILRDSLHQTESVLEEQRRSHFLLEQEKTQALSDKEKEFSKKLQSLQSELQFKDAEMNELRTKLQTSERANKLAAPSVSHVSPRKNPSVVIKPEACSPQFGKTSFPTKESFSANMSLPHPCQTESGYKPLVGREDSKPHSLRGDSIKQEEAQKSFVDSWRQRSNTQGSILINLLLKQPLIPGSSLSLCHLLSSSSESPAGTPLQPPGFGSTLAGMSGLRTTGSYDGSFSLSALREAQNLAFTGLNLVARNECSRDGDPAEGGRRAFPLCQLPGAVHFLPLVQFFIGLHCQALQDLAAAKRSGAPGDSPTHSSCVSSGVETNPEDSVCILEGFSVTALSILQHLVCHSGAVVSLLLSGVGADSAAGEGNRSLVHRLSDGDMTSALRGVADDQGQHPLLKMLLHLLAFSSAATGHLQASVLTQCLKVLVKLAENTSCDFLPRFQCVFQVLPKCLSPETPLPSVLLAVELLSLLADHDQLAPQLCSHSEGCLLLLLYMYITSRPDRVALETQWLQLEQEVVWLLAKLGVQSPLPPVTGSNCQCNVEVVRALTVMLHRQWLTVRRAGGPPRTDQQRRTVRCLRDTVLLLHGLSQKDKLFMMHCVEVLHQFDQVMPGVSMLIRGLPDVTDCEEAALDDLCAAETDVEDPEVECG

[2] = label: 5'-biotin on Oligo1, fork 1:2, 31 bp duplex, two 19 nt unpaired arms (3' of Oligo1, 5' of Oligo2)

Measured: binding result

RPA (heterotrimer), sequence (P27694 whole entry, chain 1 of 3): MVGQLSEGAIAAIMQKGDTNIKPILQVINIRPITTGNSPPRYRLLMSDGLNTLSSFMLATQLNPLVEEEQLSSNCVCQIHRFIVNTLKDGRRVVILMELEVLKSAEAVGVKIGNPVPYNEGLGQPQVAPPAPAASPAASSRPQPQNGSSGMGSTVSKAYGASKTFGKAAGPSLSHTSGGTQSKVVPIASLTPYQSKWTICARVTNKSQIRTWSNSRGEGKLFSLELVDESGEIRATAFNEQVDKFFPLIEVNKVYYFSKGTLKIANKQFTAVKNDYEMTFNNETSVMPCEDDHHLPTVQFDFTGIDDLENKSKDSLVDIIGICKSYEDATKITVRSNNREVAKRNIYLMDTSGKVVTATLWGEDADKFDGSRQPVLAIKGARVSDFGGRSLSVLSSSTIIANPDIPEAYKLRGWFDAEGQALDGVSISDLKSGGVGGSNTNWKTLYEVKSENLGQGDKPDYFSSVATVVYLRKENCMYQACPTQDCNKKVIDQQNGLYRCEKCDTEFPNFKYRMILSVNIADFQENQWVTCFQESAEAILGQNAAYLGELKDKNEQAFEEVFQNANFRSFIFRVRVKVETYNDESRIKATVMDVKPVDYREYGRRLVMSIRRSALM
RPA (heterotrimer), sequence (P15927 whole entry, chain 2 of 3): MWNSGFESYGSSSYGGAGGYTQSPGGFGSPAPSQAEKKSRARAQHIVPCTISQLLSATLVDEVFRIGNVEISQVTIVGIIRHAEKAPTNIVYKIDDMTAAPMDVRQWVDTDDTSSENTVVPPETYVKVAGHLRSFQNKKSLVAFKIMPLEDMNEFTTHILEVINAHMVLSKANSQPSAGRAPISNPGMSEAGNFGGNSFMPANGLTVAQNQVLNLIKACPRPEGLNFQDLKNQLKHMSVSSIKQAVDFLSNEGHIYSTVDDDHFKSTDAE
RPA (heterotrimer), sequence (P35244 whole entry, chain 3 of 3): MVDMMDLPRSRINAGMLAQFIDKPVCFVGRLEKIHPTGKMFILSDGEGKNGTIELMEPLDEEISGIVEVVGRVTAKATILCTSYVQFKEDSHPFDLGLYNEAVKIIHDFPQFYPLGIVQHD
MBP-XPA, sequence (P23025 whole entry): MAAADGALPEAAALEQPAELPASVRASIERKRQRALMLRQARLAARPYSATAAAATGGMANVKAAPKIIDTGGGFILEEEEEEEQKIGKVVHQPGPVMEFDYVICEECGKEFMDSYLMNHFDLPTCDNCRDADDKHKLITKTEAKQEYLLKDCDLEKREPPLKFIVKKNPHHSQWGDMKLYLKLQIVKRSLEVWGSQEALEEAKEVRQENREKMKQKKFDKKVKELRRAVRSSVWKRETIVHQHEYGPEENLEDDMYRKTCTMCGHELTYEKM
FLAG-Claspin, sequence (Q9HAW4 whole entry): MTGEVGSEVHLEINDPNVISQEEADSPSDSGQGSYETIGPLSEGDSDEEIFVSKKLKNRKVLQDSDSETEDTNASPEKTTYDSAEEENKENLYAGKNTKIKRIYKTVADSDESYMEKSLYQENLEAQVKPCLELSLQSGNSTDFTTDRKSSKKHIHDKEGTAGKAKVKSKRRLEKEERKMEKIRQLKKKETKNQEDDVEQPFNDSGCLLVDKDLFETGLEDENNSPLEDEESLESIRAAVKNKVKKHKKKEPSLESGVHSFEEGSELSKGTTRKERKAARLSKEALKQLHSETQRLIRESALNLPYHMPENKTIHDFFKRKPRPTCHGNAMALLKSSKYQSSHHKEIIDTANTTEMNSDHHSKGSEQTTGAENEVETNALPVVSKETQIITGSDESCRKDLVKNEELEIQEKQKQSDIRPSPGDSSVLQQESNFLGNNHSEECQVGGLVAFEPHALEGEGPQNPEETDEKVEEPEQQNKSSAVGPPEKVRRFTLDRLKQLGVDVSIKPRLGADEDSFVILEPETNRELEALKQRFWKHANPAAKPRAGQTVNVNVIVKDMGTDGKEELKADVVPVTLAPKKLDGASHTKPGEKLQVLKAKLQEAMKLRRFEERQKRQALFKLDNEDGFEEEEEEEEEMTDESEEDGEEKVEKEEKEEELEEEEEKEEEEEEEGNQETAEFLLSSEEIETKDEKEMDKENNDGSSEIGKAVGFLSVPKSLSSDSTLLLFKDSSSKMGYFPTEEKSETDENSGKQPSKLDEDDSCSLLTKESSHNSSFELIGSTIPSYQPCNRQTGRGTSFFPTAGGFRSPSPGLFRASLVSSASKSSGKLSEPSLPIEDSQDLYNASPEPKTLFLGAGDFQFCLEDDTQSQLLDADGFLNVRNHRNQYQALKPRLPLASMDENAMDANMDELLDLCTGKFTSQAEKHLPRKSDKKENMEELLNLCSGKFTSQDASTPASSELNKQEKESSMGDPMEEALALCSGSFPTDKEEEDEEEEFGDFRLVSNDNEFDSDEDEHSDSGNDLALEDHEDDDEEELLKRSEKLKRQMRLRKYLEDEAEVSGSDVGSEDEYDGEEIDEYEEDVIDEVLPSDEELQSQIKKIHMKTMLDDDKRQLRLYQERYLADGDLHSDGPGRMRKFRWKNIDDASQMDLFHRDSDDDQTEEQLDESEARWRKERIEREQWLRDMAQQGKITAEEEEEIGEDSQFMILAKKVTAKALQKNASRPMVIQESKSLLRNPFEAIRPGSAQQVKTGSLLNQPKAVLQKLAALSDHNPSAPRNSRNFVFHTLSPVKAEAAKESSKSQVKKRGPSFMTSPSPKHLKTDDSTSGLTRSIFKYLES
FLAG-Timeless;Tipin-His, sequence (Q9UNS1 whole entry, one chain of several): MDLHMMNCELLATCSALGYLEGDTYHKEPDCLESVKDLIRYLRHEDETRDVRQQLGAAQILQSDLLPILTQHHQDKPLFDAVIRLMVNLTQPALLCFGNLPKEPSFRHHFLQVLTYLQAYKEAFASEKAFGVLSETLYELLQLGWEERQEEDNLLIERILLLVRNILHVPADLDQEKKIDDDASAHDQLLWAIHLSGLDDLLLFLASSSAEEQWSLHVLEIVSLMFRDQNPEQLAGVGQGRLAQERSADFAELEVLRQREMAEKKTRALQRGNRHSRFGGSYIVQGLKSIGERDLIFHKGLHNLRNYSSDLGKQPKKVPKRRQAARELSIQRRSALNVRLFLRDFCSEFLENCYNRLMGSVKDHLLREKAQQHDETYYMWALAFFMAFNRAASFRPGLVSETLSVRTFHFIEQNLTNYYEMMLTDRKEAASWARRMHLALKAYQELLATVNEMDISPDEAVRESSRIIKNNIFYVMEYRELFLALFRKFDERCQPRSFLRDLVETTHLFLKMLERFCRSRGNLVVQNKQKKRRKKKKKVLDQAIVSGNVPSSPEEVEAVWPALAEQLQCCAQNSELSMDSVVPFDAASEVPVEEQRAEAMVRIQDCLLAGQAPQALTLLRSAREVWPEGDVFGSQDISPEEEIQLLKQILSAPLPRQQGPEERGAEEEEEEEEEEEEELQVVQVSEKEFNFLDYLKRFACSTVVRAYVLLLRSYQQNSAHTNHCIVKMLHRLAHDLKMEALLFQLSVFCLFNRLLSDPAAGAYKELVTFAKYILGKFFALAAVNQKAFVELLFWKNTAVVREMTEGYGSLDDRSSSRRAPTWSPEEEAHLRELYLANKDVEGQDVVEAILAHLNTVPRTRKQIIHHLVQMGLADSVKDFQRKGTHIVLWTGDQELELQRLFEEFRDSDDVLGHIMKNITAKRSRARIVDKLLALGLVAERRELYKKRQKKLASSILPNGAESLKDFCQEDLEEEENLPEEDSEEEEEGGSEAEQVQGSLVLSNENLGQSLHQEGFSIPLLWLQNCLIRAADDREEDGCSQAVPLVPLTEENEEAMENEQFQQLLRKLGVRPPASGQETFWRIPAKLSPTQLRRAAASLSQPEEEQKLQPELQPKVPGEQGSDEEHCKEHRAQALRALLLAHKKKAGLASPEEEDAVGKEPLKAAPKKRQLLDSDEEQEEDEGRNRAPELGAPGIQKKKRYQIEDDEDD
FLAG-Timeless, sequence (Q9UNS1 whole entry): as the sequence (Q9UNS1 whole entry, one chain of several) above

GACGCTGCCGAATTCTGGCTTGCTAGGACATCTTTGCCCACGTTGACCCG (ssDNA) [ssDNA 50-mer (Oligo1)]
binds: FAAP24-His; label: 5'-biotin | His-Chk1; label: 5'-biotin | RPA (heterotrimer); label: 5'-biotin

B1: fork DNA (Oligo1/Oligo2) (mixed)
DNA 1: GACGCTGCCGAATTCTGGCTTGCTAGGACATCTTTGCCCACGTTGACCCG
DNA 2: GCGATAGTCTCTAGACAGCATGTCCTAGCAAGCCAGAATTCGGCAGCGTC
binds: FLAG-Timeless | FAAP24-His; [2] | His-Chk1; [2] | MBP-XPA | [1] | FLAG-Timeless;Tipin-His | FLAG-Claspin | Tipin-His | RPA (heterotrimer); [2] | FLAG-ATRIP
